This note sets out measurements from the DeepSol protein solubility set.

This series can be described thus: soluble on expression in E. coli; label from the status in PepcDB or PDB records.
Consider “MSLTTDTTSQTVLRSRKDVPSSDCWDTKSLYASREAWKKDLENLCGKEAPFWPHLNEKQFHIEQPSSLYKLLTEVFSIERTLEKLYVYAHLTHDEDISNQEATADLKSITYLLTSFSEEISWIQPALIALPQKISEELLTSPELQTYHFYLKKIFRLAPHTGTSREEKILASSSPALEVAYKTFSSLTDSEIPFGEAVDSEGKSHPLSHALSSLYMQSPDRELRKSAYQKQCQRYHGYRLSLANLLNGKIQAHLFNAKAHNYKSCLEAALFQNNISTSVVTTLIETVKQHTHLMTKYFQLKQKALGLPDFHFYDVYAPIAASEFARHYSYEEAVSLICDSLTPLGDNYVEALRKGLTSEGWVDKYENQNKRSGAYSSGCYDSKPYILMNYTGTLYDVSVVAHEGGHSMHSFLSHKHQQYHEAQYPIFLAEIASTLNETLLMEFLLKNAPSKEEKIAILSRSLDTIFATLFRQTLFADFELEAHSAAEQGIPLTEEFFSQSYKKLQHIFYGDCVTFDELSSIEWARIPHFYYNFYVYQYATGIIASLCFSEKILSKEAGAQEAYLTFLQSGGSDFPIEILKKSGLDMTSSAPMLKAFSYIERKLDELTNLLEGHHHHHH”, for which the “soluble on expression in E. coli” value is “soluble”.

Consider “MKTFEELCQENYSRIYKYIFSMTGSKESTEDLIQEVFIAAYEKGEAFLRHEKPAAFLYKTARNMTVTYLKNLKRQRISAMEYLSENIPQDDTDLCETLLMELDRKIDETAYTGQVIGNLNTNQHNLYRQRYVEGKSIKEIASEEGVSETAMRMRLVRLRKEIQDIVKKLKLGEK”, for which the “soluble on expression in E. coli” value is “not soluble”.

Consider “MGSSHHHHHHGGTGENLYFQGGSGQQQPRPVVAQYAYIELLPLRYTGPAPPPAPACMDPTPDEQYRRGVAEKRAALKQKEARRQMSSSGSGMLASLKSAVSQAVMTMEKGAADVSTRTESQVRQLEYQYDCDRFNLHFHELAENGEVLLADYRCSAMHSGLRVNGHVQITPHYLCFLAETTSSIAKTTDAVMGVFVAARHPTSANDEPRNRPVGIKQVIALADIVSIQPSVVLESIGGQAPFFMLLPAPTVRPTALQLYTQDSKLYQFMNFESLVSRATVALNDVVKGTALDQAYNYLDHAWRDTVNLRSKDV”, for which the “soluble on expression in E. coli” value is on record as “not soluble”.

Consider “MKGFYHHPSRTISLRNNLSERQLRSTLAHELGHAMRGDVPTSGVFAEHIERRADEFAARLLISPIEYRLAESLHDGHIGAIAYELGVTVRLVEVWRDMHDRITA”, for which the “soluble on expression in E. coli” value was “not soluble”.

As to “EKKQAEEALIRSENNFRTLAENSPDIISRFDRQNRHIYVNPAAEEPYGRPPEEIIGKTHSELGMDPEKVKLWESHHEKVFATGKPESMEFGYTSSQGKEYYFNTQVVPEFIDGKVTSILVISHNIT”, the “soluble on expression in E. coli” value was “not soluble”.

As for “MDFNLNDEQELFVAGIRELMASENWEAYFAECDRDSVYPERFVKALADMGIDSLLIPEEHGGLDAGFVTLAAVWMELGRLGAPTYVLYQLPGGFNTFLREGTQEQIDKIMAFRGTGKQMWNSAITEPGAGSDVGSLKTTYTRRNGKIYLNGSKCFITSSAYTPYIVVMARDGASPDKPVYTEWFVDMSKPGIKVTKLEKLGLRMDSCCEITFDDVELDEKDMFGREGNGFNRVKEEFDHERFLVALTNYGTAMCAFEDAARYANQRVQFGEAIGRFQLIQEKFAHMAIKLNSMKNMLYEAAWKADNGTITSGDAAMCKYFCANAAFEVVDSAMQVLGGVGIAGNHRISRFWRDLRVDRVSGGSDEMQILTLGRAVLKQYR”, the “soluble on expression in E. coli” value is listed as “soluble”.

With “MTCARCGYVREDLTLFDRVFVCPKCGWIVDRDYNASLNILRRSGSERPSVWSSAFYRWQGGAMKQEALSVRGGLEHHHHHH”, the “soluble on expression in E. coli” value is listed as “not soluble”.

Turning to “MQAQNMTEASTVHVEHDPVRQRFNVDTDGHRAELAYRREGEIMTITHTQVPDAVSGRGIAAALVEDALAFARQHGLKVVPACRYADAYVRRHPRYQDLLAMAGDPLEHHHHHH”, the “soluble on expression in E. coli” value is reported as “not soluble”.

Consider “HMRQRHILFANVQGHGHVYPSLGLVSELARRGHRITYVTTPLFADEVKAAGAEVVLYKSEFDTFHVPEVVKQEDAETQLHLVYVRENVAILRAAEEALGDNPPDLVVYDVFPFIAGRLLAARWDRPAVRLTGGFAANEHYSLFKELWKSNGQRHPADVEAVHSVLVDLLGKYGVDTPVKEYWDEIEGLTIVFLPKSFQPFAETFDERFAFVGPTLTGRDGQPGWQPPRPDAPVLLVSLGNQFNEHPEFFRACAQAFADTPWHVVMAIGGFLDPAVLGPLPPNVEAHQWIPFHSVLAHARACLTHGTTGAVLEAFAAGVPLVLVPHFATEAAPSAERVIELGLGSVLRPDQLEPASIREAVERLAADSAVRERVRRMQRDILSSGGPARAADEVEAYLGRVAP”, for which the “soluble on expression in E. coli” value was “soluble”.

For “AIATDSASLQFVSPYAFEAMQKVDVARLAALSDPELRLLLPCLVRMALCAPADQSNAWAQDKKLILRLLSGVEAVNSIVALLSVDFHALEQDARKEQQLRHKAGGSNGESILVSQLQHGLTLEFEHSDPLRRLRLALSELLAIMNKVQCPFIYSCIGMLIRVIFPTGAH”, the “soluble on expression in E. coli” value is on record as “soluble”.

“MSLRKFSLIMATYGRKDEVGCFLESLMNSNYPMDKVEVIIVDQNKEIDLEPIISKYKEKIKVVHIKSNERGLALNRNKGLEIATGDIIAFPDDDCEYLVDTLNIVNNYFENEHCDLLMGRIVERNGEDSLREWPKEKIEINKNNFYTKCSSVTMFLDSKKCFVKFNDQLGAGKYFGACEDADLIYKNCKKGLKIIYNPELQIYHPHYDSNSNMDDKKIYSYGLGFGAMVKSNFDFSMLILFIKAEGYHFLKSLIYLITFKTTKSKRSWLAFKSRIKGFFEYKNEGHHHHHH”: the “soluble on expression in E. coli” value is on record as “soluble”.

On to “MSIAIKDDDEFKTIFAEKKTQPVILFFTASWCGPCQMIKPRVEELAAEHKDRLSILKIDVDECDGVGEEYEINSMPTFLLIVDGIKKDQFSGANNTKFEEMVKAALQ”, for which the “soluble on expression in E. coli” value was “not soluble”.

Regarding “QEQAVILRFGKYYETVGPGLNFYFPPIDKRFQENVTRERAYSKQGQMLTEDENIVEVPLTVQYKISNLQDFVLNVDQPEVSLQQATESALRHVAGSTTMDRILTEGREQMATEVRERLQRFLDTYRTGITVTQVNIQSAQAPREVQEAFDDVIRAREDEQREKNQAEAYANGVVPEARGQAQRIIEEANGYRDEVISRAQGEADRFSKLLVEYRKAPEVTRERLYLDTMQEVFSQTSKVLVTGQQGQNNLLYLPLDKMIDGRNAAPATGAGASAGGGSASASDLGSRIVNDLRQQDARTRESR”, the “soluble on expression in E. coli” value is listed as “not soluble”.

In the case of “MSLKITAVKCILLSCPYAIPGDLEREFCFADGHRTISVIKVETDEGIHGLGETYIGVFAPEATQAIVRQLEVDLVGRDPMDTAGIANILKLATYYWGRFGMSASIAGGIEMALWDLKGKALGVPVHQLLGGKVHDHIPAYASGGNNKPFPELKKELLGYKKLGFGAVKIRINYLEPHEIIEKVAYSREVLGDKTGLGVDACQGVNPKAWNYKEAIGIVRSLEPYKLLFVEEPCEVTDYKGFAKIRAETDCVIAGGETVSSLVEAENYLEAGALDLFQPDAAIIGGISAFRRVAQMCERKFIKLAVHTWAGGVGIMGNYHAAFASPNCTLLELPNNPFPLREEFLVQPLTLVNGGIAAPTAPGLGVEGHHHHHH”, the “soluble on expression in E. coli” value was “soluble”.

Consider “SNAWIVPKNSVLFAMYGSIGETAINKIEVATNQAILGIIPKDNILESEFLYYILAKNKNYYSKLGMQTTQKNLNAQIVKSFKIPLPPLEEQKQIAKILTKI”, for which the “soluble on expression in E. coli” value was “not soluble”.

For the sequence “MGSDKIHHHHHHMNALPLVSVVVPNYNYKRYLNLRIQSILQQTYQNIELILLDDASTDGSEEVLSDYQDHAKVSHILLNEHNTGNPFKQWFKGMQLAKGKYIWIAEADDLCELTFLEKVVPLMEKYQQAAVCFAGSKYIDKDGNVLSYDMNKWKSAIPPYAVFNGKTYAEHNLYWRSYIANASSAIFRKSMVNAQNMEQCLQMRYSGDWLFWFYMAMQGDIIERYEVLNYFRQHNQKVTVKAENNGGGKSEDIEIVRIMEQHLTHLSRYKRCIRRGMLYNRIAKLSTTDRVKLQLWELLRQKLNGTRKDGRLERLNRIARLFCPFVLTMKRDRLTPSREIG”, the “soluble on expression in E. coli” value was “not soluble”.

With “MLQFYRNLGKSGLRVSCLGLGTWVTFGGQITDEMAEHLMTLAYDNGINLFDTAEVYAAGKAEVVLGNIIKKKGWRRSSLVITTKIFWGGKAETERGLSRKHIIEGLKASLERLQLEYVDVVFANRPDPNTPMEETVRAMTHVINQGMAMYWGTSRWSSMEIMEAYSVARQFNLIPPICEQAEYHMFQREKVEVQLPELFHKIGVGAMTWSPLACGIVSGKYDSGIPPYSRASLKGYQWLKDKILSEEGRRQQAKLKELQAIAERLGCTLPQLAIAWCLRNEGVSSVLLGASNAEQLMENIGAIQVLPKLSSSIVHEIDSILGNKPYS”, the “soluble on expression in E. coli” value is recorded as “soluble”.

In the case of “MDIRYFGTTPRYSEAVGANGLIFLSGMVPENGETAAEQTADVLAQIDRWLAECGSDKAHVLDAVIYLRDMGDYAEMNGVWDAWVAAGRTPARACVEARLARPEWRVEIKITAVKRDAATA”, the “soluble on expression in E. coli” value is “not soluble”.

Consider “MYNGIGLQTARGSGTNGYVQSNLSHLMQARRKIEYNGEDDLRKMEAELNRKPNEEIMDHNRKRQIEVKCTEFEMLLEDKGLDDEDIERKVGEYRKNLLKQLESGELNVDEELSTKESHARRRAAANNRDKMRNALGLGEDYVPGSSMAKMNKSDVVGAAMESELPQKDDKEKLLETLRLHRKSKKKQESSSSSSSSSSSSESSSEDEKHRKDRKKKEKKQKLKEMEKRREKLRQKERELLAVSDKVKKEEPAESSDEEDSRKDQRKPREDRRRSVERQDQREDRRDRRRSPEDPRERRRSPEDRTVRRRSPERRRQQRSPSVERRKSPQRRDERRRRHDSSENERRSTATASKKSRMDELEVKQEPPSDSEDYIAKTNLAPIRVEKSAEKVEKSRKSSSESSSGSSDSDSSSDSSSSSDSSSDSE”, for which the “soluble on expression in E. coli” value is “not soluble”.

For the sequence “MGSDKIHHHHHHMSKIEELPPSDTDDHSYSSKPGDVFLAFVDAPVKETDDILVEDSFIGGEPKWLHPDSEPPAELLKCGACKSADNMKLLLQAFSPLDDEQMSAIQQRLGINNMSYINPQDDRVLYVFLCTECQRKGNSVRCIRGVKKNKNVDSLSEKMASTSLEKDFQINPFDLSNNSDSKCNAFSSNPFGGANANPFGADSINSNISQSKDEGKKKESATVSAKTARKLHDLQKDKEYDGNKCFKSCLLYVEEETFKNKKPAHLQLPKNLKIDKEALDLTGDEDLEKDPIKLDPRTEKLSKFLDDDTFQKFQEVVGYNPLQVLRYDLGGKPLLYAETKVDILSTVPRPGYNPSSQRIFEMQLMPKMIFDLEEVVSVDNGMEWGTILVFTDVENYMPEFDEHGVGYVEECVKVQWESRT”, the “soluble on expression in E. coli” value is reported as “not soluble”.

As for “GAMMPVPNPTMPVKGAGTTLWVYKGSGDPYANPLSDVDWSRLAKVKDLTPGELTAESYDDSYLDDEDADWTATGQGQKSAGDTSFTLAWMPGEQGQQALLAWFNEGDTRAYKIRFPNGTVDVFRGWVSSIGKAVTAKEVITRTVKVTNVGRPSMAE”, the “soluble on expression in E. coli” value was “soluble”.

Take “MRIGLFGGSFDPIHLGHLLAASQAQEVLCLDRVLFVVAARPPHKVPVAPAEARYEMTLLAVAEDPRFTVSRLELDRPGPSYTVDTLREARRLFPQDELFFITGADAYRDVLTWKEGERLPEYATLVAVARPGYPLEEAPLPVVPLFVPEVGISSTEIRRRLKEGRSVRYWVPRAVEVYIEKHGLYR”: the “soluble on expression in E. coli” value is reported as “soluble”.

In the case of “MGSDKIHHHHHHMSVVNKIIGVCRFSYLGLGGFRINEAGAEEAAKALYAADRMTLRFAYFETICLPSLAAQTDSDFTFVALIADTMPLPFRQRLKRLTETYPFLRIAVLESTGPYNSTRRAFSRGLDGQETDFITGFRLDDDDAVSVDYIARTREAADTLITLGWATKDDPAAVCFHRGIYWDMKRPDAPFWDYSEIQPLGLASAMVHHRDSRQNIYRWNHRKLASKVRCWTDPSDVMFLRTLHDHNDSGRVMPRDAEQIPDEQARRLLKDRFGLNPKRLLSTMDRVHGGTDAARQWAAETREDPFGKDGDA”, the “soluble on expression in E. coli” value was “not soluble”.
